The values below come from US20250340643A1 (AstraZeneca / MedImmune, published 2025).

The target of test [1] is T1, CTLA4 on the cells of the reporter gene bioassay (human, UniProt P16410 36-223).
T1 sequence (looked up): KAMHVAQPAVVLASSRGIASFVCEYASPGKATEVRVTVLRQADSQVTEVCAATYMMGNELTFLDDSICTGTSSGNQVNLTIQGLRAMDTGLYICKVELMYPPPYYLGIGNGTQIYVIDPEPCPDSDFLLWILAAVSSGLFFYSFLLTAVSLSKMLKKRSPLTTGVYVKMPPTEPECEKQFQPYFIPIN
Kind of test: cell-based or functional assay.

For test [2], the target named is T1, CTLA4 on the cells of the reporter gene …. Kind of test: cell-based or functional assay. This is another data set of the same source.

B1: Tremelimumab stressed at 40° C., 0 Months (fragment study) (antibody, human IgG2, kappa, V domains shown)
VH: QVQLVESGGGVVQPGRSLRLSCAASGFTFSSYGMHWVRQAPGKGLEWVAVIWYDGSNKYYADSVKGRFTISRDNSKNTLYLQMNSLRAEDTAVYYCARDPRGATLYYYYYGMDVWGQGTTVTVSS
VL: DIQMTQSPSSLSASVGDRVTITCRASQSINSYLDWYQQKPGKAPKLLIYAASSLQSGVPSRFSGSGSGTDFTLTISSLQPEDFATYYCQQYYSTPFTFGPGTKVEIKR
Regarding B1, the “Relative Potency (%) (reporter gene assay)” value in test [1] stood at 95%.

B2: Tremelimumab stressed at 40° C., 3 Months (fragment study) (antibody, human IgG2, kappa, V domains shown)
VH: QVQLVESGGGVVQPGRSLRLSCAASGFTFSSYGMHWVRQAPGKGLEWVAVIWYDGSNKYYADSVKGRFTISRDNSKNTLYLQMNSLRAEDTAVYYCARDPRGATLYYYYYGMDVWGQGTTVTVSS
VL: DIQMTQSPSSLSASVGDRVTITCRASQSINSYLDWYQQKPGKAPKLLIYAASSLQSGVPSRFSGSGSGTDFTLTISSLQPEDFATYYCQQYYSTPFTFGPGTKVEIKR
Consider B2, for which the “Relative Potency (%) (reporter gene assay)” value in test [1] was determined as 97%.

B3: Tremelimumab, Prep SEC monomer fraction (antibody, human IgG2, kappa, V domains shown)
VH: QVQLVESGGGVVQPGRSLRLSCAASGFTFSSYGMHWVRQAPGKGLEWVAVIWYDGSNKYYADSVKGRFTISRDNSKNTLYLQMNSLRAEDTAVYYCARDPRGATLYYYYYGMDVWGQGTTVTVSS
VL: DIQMTQSPSSLSASVGDRVTITCRASQSINSYLDWYQQKPGKAPKLLIYAASSLQSGVPSRFSGSGSGTDFTLTISSLQPEDFATYYCQQYYSTPFTFGPGTKVEIKR
Take B3: in test [2], the “Relative Potency (%)” value worked out at 98%.

B4: Tremelimumab stressed at 40° C., 2 Months (fragment study) (antibody, human IgG2, kappa, V domains shown)
VH: QVQLVESGGGVVQPGRSLRLSCAASGFTFSSYGMHWVRQAPGKGLEWVAVIWYDGSNKYYADSVKGRFTISRDNSKNTLYLQMNSLRAEDTAVYYCARDPRGATLYYYYYGMDVWGQGTTVTVSS
VL: DIQMTQSPSSLSASVGDRVTITCRASQSINSYLDWYQQKPGKAPKLLIYAASSLQSGVPSRFSGSGSGTDFTLTISSLQPEDFATYYCQQYYSTPFTFGPGTKVEIKR
Turning to B4, the “Relative Potency (%) (reporter gene assay)” value in test [1] is 97%.

B5: Tremelimumab, Prep SEC aggregate fraction (antibody, human IgG2, kappa, V domains shown)
VH: QVQLVESGGGVVQPGRSLRLSCAASGFTFSSYGMHWVRQAPGKGLEWVAVIWYDGSNKYYADSVKGRFTISRDNSKNTLYLQMNSLRAEDTAVYYCARDPRGATLYYYYYGMDVWGQGTTVTVSS
VL: DIQMTQSPSSLSASVGDRVTITCRASQSINSYLDWYQQKPGKAPKLLIYAASSLQSGVPSRFSGSGSGTDFTLTISSLQPEDFATYYCQQYYSTPFTFGPGTKVEIKR
B5: the “Relative Potency (%)” value in test [2] came to 73%.
